Laboratory results reported in the supplement of paper PMC9112550, “Optimization of the antimicrobial peptide Bac7 by deep mutational scanning” (BMC Biology, 2022).

System: Escherichia coli TOP10
Experiment: shrunken log2 fold change of peptide-encoding DNA abundance (4.5 h post-induction vs induction); higher = less antimicrobial activity (less host growth inhibition)
Conditions: time post-induction: 4.5 h; library: site-saturation at positions 5, 18, 19, 20
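Also: peptides expressed intracellularly from a pBAD plasmid library in pooled LB shake-flask culture, induced with 0.3% L-arabinose, DNA abundance read by NGS, three biological replicates, DESeq2 with apeglm shrinkage.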

Sequence | shrunken log2 fold change
RRIRLRPPRLPRPRPRPHVVPRP | 0.00383
RRIRIRPPRLPRPRPRPMTDPRP | -0.91
RRIRKRPPRLPRPRPRPNQVPRP | -0.0821
RRIRSRPPRLPRPRPRPCNRPRP | 0.0326
RRIRHRPPRLPRPRPRPHNYPRP | -0.296
RRIRQRPPRLPRPRPRPHNCPRP | 0.113
RRIRSRPPRLPRPRPRPQSYPRP | 0.107
RRIRGRPPRLPRPRPRPQYDPRP | 0.101
RRIRTRPPRLPRPRPRPRTFPRP | 0.0284
RRIRRRPPRLPRPRPRPVLKPRP | 0.267
RRIRCRPPRLPRPRPRPSAHPRP | -0.0707
RRIRQRPPRLPRPRPRPLLFPRP | -0.0219
RRIRPRPPRLPRPRPRPQAWPRP | 0.179
RRIRARPPRLPRPRPRPWTRPRP | 0.27
RRIRARPPRLPRPRPRPEHRPRP | 0.0198
RRIRLRPPRLPRPRPRPHDKPRP | 0.0709
RRIRNRPPRLPRPRPRPHITPRP | -0.399
RRIRYRPPRLPRPRPRPSFLPRP | -0.994
RRIRERPPRLPRPRPRPEFGPRP | -0.171
RRIRARPPRLPRPRPRPYRWPRP | 0.0451
RRIRHRPPRLPRPRPRPICSPRP | 0.0153
RRIRPRPPRLPRPRPRPIYTPRP | -0.245
RRIRGRPPRLPRPRPRPIAEPRP | 3.26
RRIRIRPPRLPRPRPRPNLQPRP | -0.285
RRIRTRPPRLPRPRPRPCKCPRP | -1.16

Sequence | shrunken log2 fold change
RRIRHRPPRLPRPRPRPKRLPRP | 0.0708
RRIRQRPPRLPRPRPRPQFMPRP | -0.302
RRIRTRPPRLPRPRPRPMMHPRP | -0.302
RRIRTRPPRLPRPRPRPSWYPRP | -1.12
RRIRVRPPRLPRPRPRPNAKPRP | 0.328
RRIRPRPPRLPRPRPRPKQVPRP | -0.0541
RRIRQRPPRLPRPRPRPHTSPRP | 0.0894
RRIRVRPPRLPRPRPRPLVWPRP | 0.115
RRIRTRPPRLPRPRPRPQAVPRP | -0.111
RRIRGRPPRLPRPRPRPDPWPRP | 0.53
RRIRERPPRLPRPRPRPELFPRP | 0.201
RRIRFRPPRLPRPRPRPGCCPRP | 0.258
RRIRRRPPRLPRPRPRPGVYPRP | -0.0241
RRIRWRPPRLPRPRPRPYEIPRP | -0.402
RRIRNRPPRLPRPRPRPIQRPRP | 0.00743
RRIRWRPPRLPRPRPRPWYQPRP | -0.179
RRIRARPPRLPRPRPRPIMAPRP | 0.0923
RRIRYRPPRLPRPRPRPFYFPRP | -0.961
RRIRYRPPRLPRPRPRPPAVPRP | -0.143
RRIRPRPPRLPRPRPRPQSWPRP | -0.134
RRIRERPPRLPRPRPRPRNIPRP | -0.095
RRIRDRPPRLPRPRPRPQLDPRP | 0.207
RRIRLRPPRLPRPRPRPHPAPRP | 0.12
RRIRRRPPRLPRPRPRPQWLPRP | 0.431
RRIRFRPPRLPRPRPRPWWPPRP | 0.0712

Sequence | shrunken log2 fold change
RRIRRRPPRLPRPRPRPGTPPRP | 0.435
RRIRDRPPRLPRPRPRPIDDPRP | 0.224
RRIRCRPPRLPRPRPRPRYIPRP | -0.035
RRIRTRPPRLPRPRPRPWLSPRP | -0.272
RRIRDRPPRLPRPRPRPCVYPRP | -0.0478
RRIRQRPPRLPRPRPRPASPPRP | -0.0456
RRIRQRPPRLPRPRPRPSRSPRP | -0.117
RRIRQRPPRLPRPRPRPHKVPRP | -0.481
RRIRGRPPRLPRPRPRPMGWPRP | 0.967
RRIRARPPRLPRPRPRPHTHPRP | -0.175
RRIRFRPPRLPRPRPRPGQCPRP | -0.114
RRIRPRPPRLPRPRPRPSKSPRP | -0.123
RRIRMRPPRLPRPRPRPFWVPRP | -0.0112
RRIRPRPPRLPRPRPRPQEEPRP | 0.0679
RRIRSRPPRLPRPRPRPDYRPRP | -0.0371
RRIRCRPPRLPRPRPRPHFDPRP | 0.0458
RRIRFRPPRLPRPRPRPRWHPRP | 0.059
RRIRERPPRLPRPRPRPASAPRP | 0.33
RRIRSRPPRLPRPRPRPSYNPRP | -0.759
RRIRFRPPRLPRPRPRPWAKPRP | -0.0227
RRIRNRPPRLPRPRPRPVNCPRP | -0.147
RRIRLRPPRLPRPRPRPDEYPRP | -0.000921
RRIRMRPPRLPRPRPRPFMRPRP | 0.345
RRIRTRPPRLPRPRPRPQTIPRP | -0.717
RRIRFRPPRLPRPRPRPMGGPRP | -0.166

Sequence | shrunken log2 fold change
RRIRCRPPRLPRPRPRPKIEPRP | -0.0736
RRIRDRPPRLPRPRPRPAMVPRP | 0.282
RRIRRRPPRLPRPRPRPWKQPRP | -0.0204
RRIRARPPRLPRPRPRPNIWPRP | 0.133
RRIRHRPPRLPRPRPRPALSPRP | -0.257
RRIRLRPPRLPRPRPRPHPEPRP | 0.0233
RRIRKRPPRLPRPRPRPYIQPRP | -0.319
RRIRYRPPRLPRPRPRPQEAPRP | -0.029
RRIRRRPPRLPRPRPRPVCKPRP | -0.012
RRIRIRPPRLPRPRPRPNASPRP | 0.109
RRIRLRPPRLPRPRPRPYQDPRP | -0.106
RRIRNRPPRLPRPRPRPTMEPRP | 0.274
RRIRNRPPRLPRPRPRPRHTPRP | -0.096
RRIRCRPPRLPRPRPRPMVNPRP | -0.0109
RRIRFRPPRLPRPRPRPYHPPRP | -0.58
RRIRPRPPRLPRPRPRPKGWPRP | 1.22
RRIRPRPPRLPRPRPRPNFWPRP | 0.153
RRIRCRPPRLPRPRPRPDWFPRP | -0.141
RRIRHRPPRLPRPRPRPPQKPRP | 0.0508
RRIRARPPRLPRPRPRPPDGPRP | 1.3
RRIRTRPPRLPRPRPRPGHNPRP | -0.184
RRIRYRPPRLPRPRPRPSWEPRP | -0.153
RRIRVRPPRLPRPRPRPYKRPRP | -0.0182
RRIRHRPPRLPRPRPRPYCNPRP | -0.456
RRIRSRPPRLPRPRPRPMRNPRP | 0.628

Sequence | shrunken log2 fold change
RRIRDRPPRLPRPRPRPEDHPRP | 1.08
RRIRRRPPRLPRPRPRPSYQPRP | -0.141
RRIRGRPPRLPRPRPRPWFSPRP | -0.246
RRIRFRPPRLPRPRPRPVTPPRP | 0.241
RRIRMRPPRLPRPRPRPMNRPRP | -0.24
RRIRIRPPRLPRPRPRPVSPPRP | 0.188
RRIRARPPRLPRPRPRPCPVPRP | 0.0768
RRIRIRPPRLPRPRPRPFLKPRP | -0.341
RRIRERPPRLPRPRPRPHADPRP | 0.0454
RRIRTRPPRLPRPRPRPHLVPRP | 0.0214
RRIRMRPPRLPRPRPRPVQQPRP | 0.113
RRIRDRPPRLPRPRPRPTNRPRP | -0.149
RRIRHRPPRLPRPRPRPEPLPRP | 0.0544
RRIRSRPPRLPRPRPRPSCNPRP | -0.377
RRIRCRPPRLPRPRPRPHQCPRP | -0.24
RRIRARPPRLPRPRPRPQMMPRP | 0.129
RRIRTRPPRLPRPRPRPNSEPRP | 0.0485
RRIRLRPPRLPRPRPRPKFYPRP | -0.369
RRIRMRPPRLPRPRPRPQEDPRP | -0.0231
RRIRARPPRLPRPRPRPKRQPRP | 0.0749
RRIRDRPPRLPRPRPRPYRGPRP | -0.0122
RRIRWRPPRLPRPRPRPYRMPRP | 0.0292
RRIRYRPPRLPRPRPRPWIAPRP | -0.791
RRIRFRPPRLPRPRPRPTRWPRP | 0.117
RRIRIRPPRLPRPRPRPGQSPRP | 0.0669
